Test results from the RNAGym collection of RNA variant scans (doi:10.7554/elife.80360).

B1: CPEB3 Ribozyme (parent)
chain: GGGGGCCACAGCAGAAGCGUUCACGUCGCGGCCCCUGUCAGAUUCUGGUGAAUCUGCGAAUUCUGCUGU

Variants of: B1
Assay: self-cleavage, relative activity (ratio to wild type); higher = more cleavage; co-transcriptional

Variant	self-cleavage
GGGGGCCACAGUAGAAGCGUUCACGUCGCGGGCCCUGUCAGAUUCUGGUGAAUCUGCGAAUUCUGCUGU [C12U C32G]	0.529
GGGGGCCACAGUAGAAGCGUUCACGUCGCGGACCCUGUCAGAUUCUGGUGAAUCUGCGAAUUCUGCUGU [C12U C32A]	0.874
GGGGGCCACAGUAGAAACGUUCACGUCGCGGCCCCUGUCAGAUUCUGGUGAAUCUGCGAAUUCUGCUGU [C12U G17A]	0.281
GGGGGCCACAGUAGAACCGUUCACGUCGCGGCCCCUGUCAGAUUCUGGUGAAUCUGCGAAUUCUGCUGU [C12U G17C]	0.138
GGGGGCCACAGUAGAAUCGUUCACGUCGCGGCCCCUGUCAGAUUCUGGUGAAUCUGCGAAUUCUGCUGU [C12U G17U]	0.321
GGGGGCCACAGUAGAAGCGUUCACGUCGCGGCCCCUGUCAGAUUCUGGUGAAUGUGCGAAUUCUGCUGU [C12U C54G]	0.84
GGGGGCCACAGUAGAAGCGUUCACGUCGCGGCCCCUGUCAGAUUCUGGUGAAUAUGCGAAUUCUGCUGU [C12U C54A]	0.812
GGGGGCCACAGUAGAAGCGUUCACGUCGCGGCCCCUGUCAUAUUCUGGUGAAUCUGCGAAUUCUGCUGU [C12U G41U]	0.718
GGGGGCCACAGUAGAAGCGUUCACGUCGCGGCCCCUGCCAGAUUCUGGUGAAUCUGCGAAUUCUGCUGU [C12U U38C]	0.921
GGGGGCCACAGUAGAAGCGUUCACGUCGCGGCCCCUGGCAGAUUCUGGUGAAUCUGCGAAUUCUGCUGU [C12U U38G]	0.277
GGGGGCCACAGUAGAAGCAUUCACGUCGCGGCCCCUGUCAGAUUCUGGUGAAUCUGCGAAUUCUGCUGU [C12U G19A]	0.12
GGGGGCCACAGUAGAAGCCUUCACGUCGCGGCCCCUGUCAGAUUCUGGUGAAUCUGCGAAUUCUGCUGU [C12U G19C]	0.154
GGGGGCCACAGUAGAAGCGUUCACGUCGCGGCCCCUGUCAGAUUCUCGUGAAUCUGCGAAUUCUGCUGU [C12U G47C]	1.03
GGGGGCCACAGUAGAAGCGUUCACGUCGCGGCCCCUGUCAGAUUCUAGUGAAUCUGCGAAUUCUGCUGU [C12U G47A]	1.03
GGGGGCCACAGUAGAAGCGUUCACGUCGCGGCCCCUGUCAGAUUCUUGUGAAUCUGCGAAUUCUGCUGU [C12U G47U]	0.998
GGGGGCCACAGUAGAAGCGUUCACGUCGCGGCCCCUGUUAGAUUCUGGUGAAUCUGCGAAUUCUGCUGU [C12U C39U]	0.854
GGGGGCCACAGUAGAAGCGUUCACGUCGCGGCCCCUGUGAGAUUCUGGUGAAUCUGCGAAUUCUGCUGU [C12U C39G]	0.928
GGGGGCCACAGUAGAAGCGUUCACGUAGCGGCCCCUGUCAGAUUCUGGUGAAUCUGCGAAUUCUGCUGU [C12U C27A]	0.419
GGGGGCCACAGUAGAAGCGUUCACGUUGCGGCCCCUGUCAGAUUCUGGUGAAUCUGCGAAUUCUGCUGU [C12U C27U]	0.297
GGGGGCCACAGUAGAAGCGUUCACGUCGCGGCCCCUGUCAGAUUCUGGUGAAUCUGCGAAUUCUGCUUU [C12U G68U]	0.995
GGGGGCCACAGUAGAAGCGUUCACGUCGCGGCCCCUGUCAGAUUCUGGUGAAUCUGCGAAUUCUGCUAU [C12U G68A]	0.997
GGGGGCCACAGUAGAAGCGUUCACGUCGUGGCCCCUGUCAGAUUCUGGUGAAUCUGCGAAUUCUGCUGU [C12U C29U]	0.232
GGGGGCCACAGUAGAAGCGUUCACGUCGGGGCCCCUGUCAGAUUCUGGUGAAUCUGCGAAUUCUGCUGU [C12U C29G]	0.317
GGGGGCCACAGUAGAAGCGUUCACGUCGCGGCCCCUGUCAGAUUCUGGUGAAUCCGCGAAUUCUGCUGU [C12U U55C]	0.83
GGGGGCCACAGUAGAAGCGUUCACGUCGCGGCCCCUGUCAGAUUCUGGUGAAUCGGCGAAUUCUGCUGU [C12U U55G]	0.616
GGGGGCCACAGUAGAAGCGUUCACGUCGCGGCCCCUGUCAGAUUCUGGUGAAUCUGCGAAUACUGCUGU [C12U U62A]	0.819

Variant	self-cleavage
GGGGGCCACAGUAGAAGCGUUCACGUCGCGGCCCCUGUCAGAUUCUGGUGAAUCUGCGAAUGCUGCUGU [C12U U62G]	0.542
GGGGGCCACAGUAGAAGCGUUCACGUCGCGGCCCCUGUCAGAUUCUGGUGAAGCUGCGAAUUCUGCUGU [C12U U53G]	0.771
GGGGGCCACAGUAGAAGCGUUCACGUCGCGGCCCCUGUCAGAUUCUGGUGAAACUGCGAAUUCUGCUGU [C12U U53A]	0.909
GGGGGCCACAGUAGAAGCGUUCACGUCGCGGCCCCUGUCAGAUUCUGGCGAAUCUGCGAAUUCUGCUGU [C12U U49C]	0.971
GGGGGCCACAGUAGAAGCGUUCACGUCGCGGCCCCUGUCAGAUUCUGGGGAAUCUGCGAAUUCUGCUGU [C12U U49G]	1
GGGGGCCACAGUAGAAGCGUUCACGUCGCGGCCCCGGUCAGAUUCUGGUGAAUCUGCGAAUUCUGCUGU [C12U U36G]	0.193
GGGGGCCACAGUAGAAGCGUUCACGUCGCGGCCCCAGUCAGAUUCUGGUGAAUCUGCGAAUUCUGCUGU [C12U U36A]	0.231
GGGGGCCACAGUAGAAGCGUUCACGUCGCGGCCCCUGUCAGAUUCAGGUGAAUCUGCGAAUUCUGCUGU [C12U U46A]	1
GGGGGCCACAGUAGAAGCGUUCACGUCGCGGCCCCUGUCAGAUUCCGGUGAAUCUGCGAAUUCUGCUGU [C12U U46C]	0.939
GGGGGCCACAGUAGAAGCGUUCACGUCGCGGCCCCUGUCAGAUUCUGUUGAAUCUGCGAAUUCUGCUGU [C12U G48U]	1.01
GGGGGCCACAGUAGAAGCGUUCACGUCGCAGCCCCUGUCAGAUUCUGGUGAAUCUGCGAAUUCUGCUGU [C12U G30A]	0.864
GGGGGCCACAGUAGAAGCGUUCACGUCGCGACCCCUGUCAGAUUCUGGUGAAUCUGCGAAUUCUGCUGU [C12U G31A]	0.905
GGGGGCCACAGUAGAAGCGUUCACGUCGCGUCCCCUGUCAGAUUCUGGUGAAUCUGCGAAUUCUGCUGU [C12U G31U]	0.723
GGGGGCCACAGUAGAAGCGUUCACGUCGCGCCCCCUGUCAGAUUCUGGUGAAUCUGCGAAUUCUGCUGU [C12U G31C]	0.191
GGGGGCCACAGUAGAAGCGUUCACGUCGCGGCCCCUGUCAGAUUCUGGUGAAUCUGCGAAUUCUGAUGU [C12U C66A]	0.571
GGGGGCCACAGUAGAAGCGAUCACGUCGCGGCCCCUGUCAGAUUCUGGUGAAUCUGCGAAUUCUGCUGU [C12U U20A]	0.146
GGGGGCCACAGUAGAAGCGCUCACGUCGCGGCCCCUGUCAGAUUCUGGUGAAUCUGCGAAUUCUGCUGU [C12U U20C]	0.165
GGGGGCCACAGUAGAAGCGUUCACGUCGCGGCUCCUGUCAGAUUCUGGUGAAUCUGCGAAUUCUGCUGU [C12U C33U]	0.972
GGGGGCCACAGUAGAAGCGUUCACGACGCGGCCCCUGUCAGAUUCUGGUGAAUCUGCGAAUUCUGCUGU [C12U U26A]	0.91
GGGGGCCACAGUAGAAGCGUUCACGCCGCGGCCCCUGUCAGAUUCUGGUGAAUCUGCGAAUUCUGCUGU [C12U U26C]	0.996
GGGGGCCACAGUAGAAGCGUUCACGGCGCGGCCCCUGUCAGAUUCUGGUGAAUCUGCGAAUUCUGCUGU [C12U U26G]	0.925
GGGGGCCACAGUAGAAGCGUGCACGUCGCGGCCCCUGUCAGAUUCUGGUGAAUCUGCGAAUUCUGCUGU [C12U U21G]	0.537
GGGGGCCACAGUAGAAGCGUACACGUCGCGGCCCCUGUCAGAUUCUGGUGAAUCUGCGAAUUCUGCUGU [C12U U21A]	0.947
GGGGGCCACAGUAGAAGCGUUCACCUCGCGGCCCCUGUCAGAUUCUGGUGAAUCUGCGAAUUCUGCUGU [C12U G25C]	0.121
GGGGGCCACAGUAGAAGCGUUCACUUCGCGGCCCCUGUCAGAUUCUGGUGAAUCUGCGAAUUCUGCUGU [C12U G25U]	0.134
GGGGGCCACAGUAGAAGCGUUCACAUCGCGGCCCCUGUCAGAUUCUGGUGAAUCUGCGAAUUCUGCUGU [C12U G25A]	0.184

Variant	self-cleavage
GGGGGCCACAGUAGAAGCGUUCACGUCGCGGCCCCUGUCAGAUUCUGGUGAAUCUGCGAAUUGUGCUGU [C12U C63G]	0.443
GGGGGCCACAGUAGAAGCGUUCACGUCGCGGCCCCUGUCAGAUUCUGGUGAAUCUGCGAAUUCUCCUGU [C12U G65C]	0.864
GGGGGCCACAGUAGAAGCGUUCACGUCGCGGCCCCUGUCAGAUUCUGGUGAAUCUGCGAAUUCUACUGU [C12U G65A]	1
GGGGGCCACAGUAGAAGCGUUCACGUCGCGGCCCCUGUCAGAUUCUGGUGAAUCUGCGAAUUCUUCUGU [C12U G65U]	0.948
GGGGGCCACAGUAGAAGCGUUCACGUCGCGGCCCCUGUCAGAGUCUGGUGAAUCUGCGAAUUCUGCUGU [C12U U43G]	0.706
GGGGGCCACAGUAGAAGCGUUCACGUCGCGGCCCCUGUCAGACUCUGGUGAAUCUGCGAAUUCUGCUGU [C12U U43C]	0.928
GGGGGCCACAGUAGAAGCGUUCACGUCGCGGCCCCUGUCAGAUUCUGGUGAAUCUACGAAUUCUGCUGU [C12U G56A]	0.844
GGGGGCCACAGUAGAAGCGUUCACGUCCCGGCCCCUGUCAGAUUCUGGUGAAUCUGCGAAUUCUGCUGU [C12U G28C]	0.175
GGGGGCCACAGUAGAAGCGUUCACGUCUCGGCCCCUGUCAGAUUCUGGUGAAUCUGCGAAUUCUGCUGU [C12U G28U]	0.131
GGGGGCCACAGUAGAAGCGUUCACGUCACGGCCCCUGUCAGAUUCUGGUGAAUCUGCGAAUUCUGCUGU [C12U G28A]	0.17
GGGGGCCACAGUAGAAGCGUUCACGUCGCGGCCCCUGUCAGAUUAUGGUGAAUCUGCGAAUUCUGCUGU [C12U C45A]	0.97
GGGGGCCACAGUAGAAGCGUUCACGUCGCGGCCCCUGUCAGAUUCUGGUGAAUCUGGGAAUUCUGCUGU [C12U C57G]	0.31
GGGGGCCACAGUAGAAGCGUUCACGUCGCGGCCCCUGUCAGAUUCUGGUGAAUCUGAGAAUUCUGCUGU [C12U C57A]	0.438
GGGGGCCACAGUAGAAGCGUUCACGUCGCGGCCCCUAUCAGAUUCUGGUGAAUCUGCGAAUUCUGCUGU [C12U G37A]	0.302
GGGGGCCACAGUAGAAGCGUUCACGUCGCGGCCCCUCUCAGAUUCUGGUGAAUCUGCGAAUUCUGCUGU [C12U G37C]	0.241
GGGGGCCACAGUAGAAGCGUUCACGUCGCGGCCCCUUUCAGAUUCUGGUGAAUCUGCGAAUUCUGCUGU [C12U G37U]	0.222
GGGGGCCACAGUAAAAGCGUUCACGUCGCGGCCCCUGUCAGAUUCUGGUGAAUCUGCGAAUUCUGCUGU [C12U G14A]	0.19
GGGGGCCACAGUAGAAGCGUUCACGUCGCGGCCGCUGUCAGAUUCUGGUGAAUCUGCGAAUUCUGCUGU [C12U C34G]	0.734
GGGGGCCACAGUAGAAGCGUUCACGUCGCGGCCACUGUCAGAUUCUGGUGAAUCUGCGAAUUCUGCUGU [C12U C34A]	0.778
GGGGGCCACAGUAGAAGCGUUCACGUCGCGGCCUCUGUCAGAUUCUGGUGAAUCUGCGAAUUCUGCUGU [C12U C34U]	0.959
GGGGGCCACAGUAGAAGCGUUCACGUCGCGGCCCCUGUCAGAUUCUGGUGAAUCUGCGAAAUCUGCUGU [C12U U61A]	0.822
GGGGGCCACAGUAGAAGCGUUCACGUCGCGGCCCCUGUCAGAUCCUGGUGAAUCUGCGAAUUCUGCUGU [C12U U44C]	0.906
GGGGGCCACAGUAGAAGCGUUCACGUCGCGGCCCCUGUCAGAUUCUGGUCAAUCUGCGAAUUCUGCUGU [C12U G50C]	0.974
GGGGGCCACAGUAGAAGCGUUCACGUCGCGGCCCCUGUCAGAUUCUGGUAAAUCUGCGAAUUCUGCUGU [C12U G50A]	1
GGGGGCCACAGUAGAAGCGUUCACGUCGCGGCCCCUGUCAGAUUCUGGUGAAUCUGCUAAUUCUGCUGU [C12U G58U]	0.991
GGGGGCCACAGUAGAAGCGUUCACGUCGCGGCCCCUGUCAGAUUCUGGUGAAUCUGCAAAUUCUGCUGU [C12U G58A]	1.01
